Data: publication PMC6631230, “Efficient Screening of Combinatorial Peptide Libraries by Spatially Ordered Beads Immobilized on Conventional Glass Slides” (High-Throughput, 2019)

Molecular target: mouse IgG
Assay: not given
Conditions: literature IgG-binding peptide listed in Table 3; read-out: KD (equilibrium dissociation constant), literature value; cited from earlier work
Source text: Table 3 Equilibrium dissociation constants (KD) for peptide mouse IgG interaction determined by SPR. | column: KD, µM

| Molecule | Kd |
| --- | --- |
| HWRGWV | 10 µM |
| HFRRHL | 26 µM |

Molecular target: polyclonal mouse IgG (mouse)
Assay: SPR; antibody immobilised by amine coupling on an HC200 chip (Reichert SR7500DC); peptides flowed in HBS-EP (pH 7.4, 0.01 M HEPES, 0.15 M NaCl, 3 mM EDTA, 0.005% Tween 20); multiple kinetics mode
Conditions: not given

| Kd | Molecule |
| --- | --- |
| 14 µM | GRIHGPR [IgG BP 1] |
| 20 µM | GEPFSIP [IgG BP 3] |
| 60 µM | SHSGIFR [IgG BP 4] |
| 50 µM | GIHPFGR [IgG BP 2] |
